Experimental data: patent US20240076412A1 (NATIONAL INSTITUTE OF BIOLOGICAL SCIENCES BEIJING, published 2024)
Read-outs that look alike come from different tables or passages of the source.

What was measured:
[1] = target: extracellular domain of human CD47 (CD47-ECD), residues 1-118, with His6 tag and Avi tag (human) (UniProt Q08722); experiment: SPR (Biacore), scFv-hFc captured on anti-human IgG Fc CM5 chip, CD47 as analyte, 1:1 Langmuir model
[2] = target: extracellular domain of human CD47 (CD47-ECD), residues 1-118, with His6 tag and Avi tag (human) (UniProt Q08722); experiment: SPR (Biacore), scFv-hFc captured on anti-human IgG Fc CM5 chip, CD47 as analyte, 1:1 model; column head x 10^6 applied
[3] = target: extracellular domain of human CD47 (CD47-ECD), residues 1-118, with His6 tag and Avi tag (human) (UniProt Q08722); experiment: SPR (Biacore), scFv-hFc captured on anti-human IgG Fc CM5 chip, CD47 as analyte, 1:1 model; column head x 10^-3 applied
[4] = target: extracellular domain of human CD47 (CD47-ECD), residues 1-118, with His6 tag and Avi tag (human) (UniProt Q08722); experiment: competition of the CD47/SIRPα interaction (% inhibition); the format is not stated for this panel, taken as the SIRPα competition ELISA of Example 1 with labelled SIRPα as competitor
[5] = target: extracellular domain of human CD47 (CD47-ECD), residues 1-118, with His6 tag and Avi tag (human) (UniProt Q08722); experiment: phage-scFv ELISA on captured CD47-Bio
[6] = target: T1, extracellular domain of human CD47 (CD47-ECD), residues 1-118, with His6 tag and Avi tag (human, UniProt Q08722 19-136, biotin modification at the C-terminus (Avi tag, BirA) in the form called CD47-Bio); experiment: CD47 binding ELISA, bio-CD47 captured on neutravidin, full-length IgG1
T1 construct: also called CD47-ECD-His6; CD47-Bio; not shown: His6 tag and Avi tag from the vector

[7] = target: T1, extracellular domain of human CD47 …; experiment: SIRPα competition ELISA, CD47-ECD-His6 coated, competitor 0.5 nM biotinylated SIRPα-d1-mFc
Procedure: (§1) The wash, development and read steps are the same as hCD47 binding ELISA. The OD450 values were transformed to Inhibition % in data analysis.
(§2) B. Antibodies in the form of full-length IgG1 were 3-fold serial diluted (starting at 40 nM, 12 concentrations total).

[8] = target: T1, extracellular domain of human CD47 …; experiment: SPR (Biacore T200), IgG1 captured on CM5 chip, CD47 as analyte; the column head prints KD (nM), but the cell equals kd/ka in M [Con't]
Procedure: (§3) 1 μg/mL of anti-CD47 full length IgG1 antibodies were captured onto a CM5 chip for 30 s at 10 μl/min. CD47 in 2-fold serial dilutions (starting at 100 nmol, seven concentrations total) were injected over the antibody-bound surface for 120 s at 30 μl/min followed by a 240 s dissociation phase. After each cycle, the surface was regenerated with magnesium chloride.

[9] = target: T1, extracellular domain of human CD47 …; experiment: SPR (Biacore T200), IgG1 captured on CM5 chip, CD47 as analyte; the column head also prints x 10^6, not applied because kd/ka of the cells gives the KD cell in M [Con't]
Procedure: as §3

[10] = target: T1, extracellular domain of human CD47 …; experiment: SPR (Biacore T200), IgG1 captured on CM5 chip, CD47 as analyte; the column head also prints x 10^-3, not applied because kd/ka of the cells gives the KD cell in M [Con't]
Procedure: as §3

[11] = target: T1, extracellular domain of human CD47 …; experiment: SPR (Biacore T200), IgG1 captured on CM5 chip, CD47 as analyte [Con't]
Procedure: SPR was performed on a Biacore T200. 1 μg/mL of anti-CD47 full length IgG1 antibodies were captured onto a CM5 chip for 30 s at 10 μl/min. CD47 in 2-fold serial dilutions (starting at 100 nmol, seven concentrations total) were injected over the antibody-bound surface for 120 s at 30 μl/min followed by a 240 s dissociation phase. After each cycle, the surface was regenerated with magnesium chloride.

[12] = target: T1, extracellular domain of human CD47 …; experiment: CD47 binding ELISA, bio-CD47 captured on neutravidin, full-length IgG1; remark: listed apart in the source
Procedure: CD47 binding ELISA: 2 μg/mL of neutravidin (Sigma) in phosphate buffered saline (PBS) was coated in U-bottom 96-well plate (Nunc, MaxiSorp™), 100 μL per well, at 4° C. overnight or 37° C. for 1 hour. 2 μg/mL of bio-CD47 in PBS containing 2% nonfat milk were then captured onto the plates at 100 μL per well by incubation at 30° C. for 1 hour. […] In between each incubation step, the ELISA plate was washed for 6 times with PBST solution (0.05% Tween20 containing PBS) at 200 μL per well. Followed by HRP-conjugated antibody incubation, the ELISA signal was developed by incubating with TMB substrate (Sigma) for 5-10 mins at 30° C. and then stop the reaction with 2M H₂SO₄ at 50 μL per well. The absorbance at 450 nm was read by a microplate reader (Bio-Rad). For scFv-Fc or IgG1 based ELISA, the method was basically the same as described above for phage-scFvs except the bound antibodies were detected by HRP-conjugated mouse anti-human IgG Fc antibody (Sigma).
In FIG. 3, A. Antibodies in the form of full-length IgG1 were 3-fold serial diluted (starting at 10 nM, 12 concentrations total). B. Antibodies in the form of full-length IgG1 were 3-fold serial diluted (starting at 40 nM, 12 concentrations total).

[13] = target: T1, extracellular domain of human CD47 …; experiment: SIRPα competition ELISA, CD47-ECD-His6 coated, competitor 0.8 nM biotinylated SIRPα-d1-mFc
Procedure: as §1, §2

[14] = target: T1, extracellular domain of human CD47 …; experiment: self-competition of unlabelled SIRPα against labelled SIRPα for CD47 (% inhibition); the sheet prints only SIRPα, taken as the unlabelled SIRPα-d1-mFc of the competition ELISA of Example 1

B1: BC18 scFv-hFc (Fc fusion, part only; not given: scFv linker, domain order, IgG1 Fc, not shown: another chain or arm of the molecule; a dimerising Fc or GST; small tags and cut ends)
VH: QVQLQQSGPGLVKPSETLSLTCTVSGDSINYHYWSWIRQPPGKGLEWIGYIYYSGSTTYNPSLKSRVTMSVDPSKNHFSLKLTSVTAADTALYFCARQRGAYDYWGQGTQVTVSS
VL: DIQLTQSPSSVSASVGDRVTIACRASQDIGSRLVWYQQRPGKAPKLLIYAASSLQSGVPSRFSGSGSGTDFTLTISSLQPEDFATYYCQQSYSTPYSFGQGTKLEIK
- Kd [1]: 1.43 nM
- kon [2]: 2.41e+06 M⁻¹ s⁻¹
- koff [3]: 0.00328 s⁻¹
- IC50 (read off the curve) [4]: 10 nM

B2: BC7 scFv-hFc (Fc fusion, part only; not given: scFv linker, domain order, IgG1 Fc, not shown: another chain or arm of the molecule; a dimerising Fc or GST; small tags and cut ends)
VH: QVQLQQSGPGLVKPSETLSLTCTVSGDSINYHYWSWIRQPPGKGLEWIGYIYYSGSTTYNPSLKSRVTMSVDPSKNHFSLKLTSVTAADTALYFCARQRGAYDYWGQGTLVTVSS
VL: DIVMTQSPSSVSASVGDRVTITCRASQGIGSRLAWYQQKPGKAPQLLIYAASSLQSGVPSRFSGSGSGTEFTLTISSLQPDDFATYYCQQYNSFSPITFGQGTRLEIK
- Kd [1]: 3.27 nM
- kon [2]: 1.84e+06 M⁻¹ s⁻¹
- koff [3]: 0.006 s⁻¹

B3: BC7 phage-scFv (scFv, part only; not given: scFv linker, domain order, phage fusion, V domains shown, not shown: another chain or arm of the molecule; large carriers; small tags and cut ends)
VH: QVQLQQSGPGLVKPSETLSLTCTVSGDSINYHYWSWIRQPPGKGLEWIGYIYYSGSTTYNPSLKSRVTMSVDPSKNHFSLKLTSVTAADTALYFCARQRGAYDYWGQGTLVTVSS
VL: DIVMTQSPSSVSASVGDRVTITCRASQGIGSRLAWYQQKPGKAPQLLIYAASSLQSGVPSRFSGSGSGTEFTLTISSLQPDDFATYYCQQYNSFSPITFGQGTRLEIK
- optical density at 450 nm [5]: > 0.2 OD450

B4: BC18 phage-scFv (scFv, part only; not given: scFv linker, domain order, phage fusion, V domains shown, not shown: another chain or arm of the molecule; large carriers; small tags and cut ends)
VH: QVQLQQSGPGLVKPSETLSLTCTVSGDSINYHYWSWIRQPPGKGLEWIGYIYYSGSTTYNPSLKSRVTMSVDPSKNHFSLKLTSVTAADTALYFCARQRGAYDYWGQGTQVTVSS
VL: DIQLTQSPSSVSASVGDRVTIACRASQDIGSRLVWYQQRPGKAPKLLIYAASSLQSGVPSRFSGSGSGTDFTLTISSLQPEDFATYYCQQSYSTPYSFGQGTKLEIK
- optical density at 450 nm [5]: > 0.2 OD450

B5: AB6.12 (antibody, V domains shown)
VH: QMQLVQSGAEVKKTGSSVKVSCKASGFNIKDYYLHWVRQAPGQALEWMGWIDPDQGDTEYAQKFQDRVTITRDRSMSTAYMELSSLRSEDTAMYYCNAAYGSSSYPMDYWGQGTTVTVSS
VL: NIQMTQSPSAMSASVGDRVTITCKASQDIHRYLSWFQQKPGKVPKHLIYRANRLVSGVPSRFSGSGSGTEFTLTISSLQPEDFATYYCLQYDEFPYTFGGGTKVEIKR
- EC50 (read off the curve) [6]: ~0.2 nM
- IC50 (read off the curve) [7]: ~6 nM
- Kd [8]: 1.76 nM
- kon [9]: 1.06e+06 M⁻¹ s⁻¹
- koff [10]: 0.00186 s⁻¹

B6: BC7 full-length human IgG1 (antibody, V domains shown)
VH: QVQLQQSGPGLVKPSETLSLTCTVSGDSINYHYWSWIRQPPGKGLEWIGYIYYSGSTTYNPSLKSRVTMSVDPSKNHFSLKLTSVTAADTALYFCARQRGAYDYWGQGTLVTVSS
VL: DIVMTQSPSSVSASVGDRVTITCRASQGIGSRLAWYQQKPGKAPQLLIYAASSLQSGVPSRFSGSGSGTEFTLTISSLQPDDFATYYCQQYNSFSPITFGQGTRLEIK
- Kd [11]: 4.81 nM
- koff [11]: 0.00394 s⁻¹
- kon [11]: 816000 M⁻¹ s⁻¹
- EC50 (read off the curve) [12]: ~0.01 nM
- IC50 (read off the curve) [13]: ~4 nM

B7: B6H12 (antibody)
chain: EVQLVESGGDLVKPGGSLKLSCAASGFTFSGYGMSWVRQTPDKRLEWVATITSGGTYTYYPDSVKGRFTISRDNAKNTLYLQIDSLKSEDTAIYFCARSLAGNAMDYWGQGTSVTVSSGGGGSGGGGSGGGGSDIVMTQSPATLSVTPGDRVSLSCRASQTISDYLHWYQQKSHESPRLLIKFASQSISGIPSRFSGSGSGSDFTLSINSVEPEDVGVYYCQNGHGFPRTFGGGTKLEIK
- EC50 (read off the curve) [12]: ~0.02 nM

B8: BC18m03 (antibody, IgG1, V domains shown)
VH: QVQLQESGPGLVKPSETLSLTCTVSGDSINYHYWSWIRQPPGKGLEWIGYIYYSGSTTYNPSLKSRVTMSVDPSKNHFSLKLTSVTAADTALYFCARQRGAYDYWGQGTLVTVSS
VL: DIQLTQSPSSVSASVGDRVTIACRASQDIGSRLVWYQQRPGKAPKLLIYAASSLQSGVPSRFSGSGSGTDFTLTISSLQPEDFATYYCQQSYSTPYSFGQGTKLEIK
- Kd [11]: 1.6 nM
- koff [11]: 0.00122 s⁻¹
- kon [11]: 762000 M⁻¹ s⁻¹

B9: BC7m03 (antibody, IgG1, V domains shown)
VH: QVQLQQSGPGLVKPSETLSLTCTVSGDSINYHYWSWIRQPPGKGLEWIGYIYYSGSTTYNPSLKSRVTMSVDPSKNHFSLKLTSVTAADTALYFCARQRGAYDYWGQGTLVTVSS
VL: DIVMTQSPSSVSASVGDRVTITCRASQDIGSRLAWYQQKPGKAPQLLIYAASSLQSGVPSRFSGSGSGTEFTLTISSLQPDDFATYYCQQYNSFSPITFGQGTRLEIK
- Kd [11]: 1.46 nM
- koff [11]: 0.00118 s⁻¹
- kon [11]: 806000 M⁻¹ s⁻¹

B10: BC7m04 (antibody, IgG1, V domains shown)
VH: QVQLQQSGPGLVKPSETLSLTCTVSGDSINYHYWSWIRQPPGKGLEWIGYIYYSGSTTYNPSLKSRVTMSVDPSKNHFSLKLTSVTAADTALYFCARQRGAYDYWGQGTLVTVSS
VL: DIVMTQSPSSVSASVGDRVTITCRASQDIGSRLAWYQQKPGKAPKLLIYAASSLQSGVPSRFSGSGSGTDFTLTISSLQPEDFATYYCQQYNSFSPITFGQGTRLEIK
- Kd [11]: 1.55 nM
- koff [11]: 0.00118 s⁻¹
- kon [11]: 763000 M⁻¹ s⁻¹

B11: SIRPα-d1-mFc fusion protein (Fc fusion, human, UniProt P78324 31-148, looked up)
chain: EEELQVIQPDKSVLVAAGETATLRCTATSLIPVGPIQWFRGAGPGRELIYNQKEGHFPRVTTVSDLTKRNNMDFSIRIGNITPADAGTYYCVKFRKGSPDDVEFKSGAGTELSVRAKP
modifications: biotinylated with Sulfo-NHS-SS-Biotin where used as the labelled ligand
notes: range 1-148; also called bio-SIRPα-d1-mFc; biotinylated SIRPα-d1-mFc; not shown: mouse IgG2a Fc fragment
- IC50 (read off the curve) [14]: ~4 nM
